Assay: yeast display, Sf9 membrane polyspecificity reagent, FACS + sequencing; frameworks hold sequencing errors
In short: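 A synthetic nanobody library was expressed on Saccharomyces cerevisiae BJ5465 by galactose induction for 36–48 hours. The library was stained for 1 hour at 4 °C with 10% biotinylated, detergent-solubilized Sf9 membrane reagent and enriched with streptavidin microbeads before FACS. Low and high (top ~1%) gates were set on anti-HA fluorescence for expression and streptavidin fluorescence for reagent binding, and each polyreactivity label reflects the gate of origin.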

## QVQHVESGGGLVQAGGSLRLSCAASFYVYAMGWYRQAPGKERELVAAITYSGGGTYYADSVKGRFTISRDNAKKTVYLQMYSLKPEDTAVYYCNARATAYGWRGYAGFEFDYWGQGTQVTVSS
  polyreactivity (PSR sort gate): low polyreactivity

## QVQLVESGGGLVQAGGSLRLSCAASGRTFWPNVMGWYRQAPGKERELVAAITWGDASTYYADSVKGRFTISRDNAKNTVYLQMNSLKPEDTAVYYCAASDYGRTYDYWGQGTQVTVSS
  polyreactivity (PSR sort gate): low polyreactivity

## QVQLVESGGGLVQAGGSLRLSCAASGRTFGRYALGWDRQAPGKDRELVAAISYSTDSTYYADSVKGRFTISRDNAKNTVYLQMNSLKPEDTAVYYCATDSVNVGSYVGDKHDYWGQGTQVTLSS
  polyreactivity (PSR sort gate): low polyreactivity

## QVQLVESGGGLVQAGGSLRLSCAASGSTLAIYAMGWYRQAPGKERELVAAISRSGGTTYYADSVKGRFTISRDNAKNTVYLQMNSLKPEDTAVYYCYPYFWYPDGYTYDYWGQGTQVTVSS
  polyreactivity (PSR sort gate): high polyreactivity

## QVQLVESGGGLVQAGGSLRLSCAASGLTLSGYAMGWYRQAPGKERELVAAISYTGGSTYYADSVKGRFTISRDNAKNTVYLQMNSLKPEDTAVYYCAARAGSRSFDYWGQGTQVTVSS
  polyreactivity (PSR sort gate): high polyreactivity

## QVQLVESGGGLVQAGGSLRLSCAASGRTFVANAMGWYRQAPGKERELVAAISSSGGSTYYADSVKGRFTISRDNAKNTVYLQMNSLKPEDTAVYYCNRVGVYYRLYPYYYWGQGTQVTVSS
  polyreactivity (PSR sort gate): high polyreactivity

## QVQLVESWGGLVQAGGSLRLSCSASGRTLRGYAMGWYRQAPGKERELVAAISKGGGSTFYADSVKGRFTISRDNAKNTVYLLMISLKPEDTAVYYCAARARYTRRGRHYDYWGQGTQVTVSS
  polyreactivity (PSR sort gate): high polyreactivity

## QVQLVESGGGLVQAGGSLRLSCAASGSTFVDYAMGWYRQAPGKERELVAAINERGGSTYYADSVKGRFTISRDNAKNTVYLQMNSLKPEDTAVYYCAARRRTRSSHSWYIRYGYWGQGTQVTVSS
  polyreactivity (PSR sort gate): low polyreactivity

## QVQLVESGGGLVHAGGSLRLSCAASGFTFYYYAMGWYRPAPGKERELVAAISSRGGNSYYADSVKGRFTISRDNAKNTVYLQMNSLKPEDTAVYYCASVPLKYDYWGQGTQVTVSS
  polyreactivity (PSR sort gate): high polyreactivity

## QVQLVESGGGLVQAGGSLRLSCAASGSTFPGNAMGWYRQAPGKERELVASISGGGDSTYYADSVKGRFTISRDYAKNTVYLQMNSLKPEDTAVYYCAADYRQEPGYTGYYYWGQGTQVTVSS
  polyreactivity (PSR sort gate): low polyreactivity

## QVQLVESGGGLVHAGGSLRLSCAASGSTFFPYDMGWYRPEPGTERYFVAGISSDGGTSYADSVKGRFTISRDNAKNTVYLQMNSMKPEDTAVYDCAALQADGDRYPEFDLMDYWGQGSQVTVSS
  polyreactivity (PSR sort gate): low polyreactivity

## QVQLVESGGGLVQAGGSLRLSCATGSIFGYNAMGWYRQAPGKERELVAAITSGGSTYYADSVKGRFTISRDNAKNTVYLQMNSLKPEDTAVYYCNRDDYNTAYRDASGYWGQGTQVTVSS
  polyreactivity (PSR sort gate): low polyreactivity

## HGQLVESGGGLVQAGGSLRLSCAASGSHLSNYAMGWYREAPGKERELVAAISLSVGSTYYADSVKGRFTISRDNAKNTVYLQMNSLKPEDTAVYYCAADDFYSGPFRGDYWGQGTQVTVSS
  polyreactivity (PSR sort gate): low polyreactivity

## QVQLVESGGCLVQAGGSLRLSCAASGRTFRVNAMGWYRQAPGKEWELVAAITWRGGSTYYADSVKGRFTISRDIAKYTVYLQMNSLKPEDTAVYYCAARYSSSSRRQKSDYWGQGTQVTVSS
  polyreactivity (PSR sort gate): high polyreactivity

## QVQRVESGGGLVQAGGSLRLSCAASGRTFYPNAMGWSRQAPGKERELVADITYSGASTYYADSVKGRFTISRDNAKNTVYLQMNSMKPEDTAVYYCAKVYGQMVSGGYVTRYDFWGQGTQVTVSS
  polyreactivity (PSR sort gate): low polyreactivity

## QVQLVESGGGLVQAGGSLRLSCAASGRIFKRNAMGWYRQAPGKDTELVAGISSSGGSTYYADSVKGRFTISRDNAKNTVYLQMNSLKPEDTAVYYCAAVGYGLRPSYDYWGQGTQVTVSS
  polyreactivity (PSR sort gate): high polyreactivity

## QVQLVESGGGLVQAGGSLRLSCAASGFTFSWYAMGWYRQAPGKERELVAAISRRGGSTYYADSVKGRFTISRDIAKNTVYLQMNSLKPEDTAVYYCNAALTYDYNYWGQGTQVTVSS
  polyreactivity (PSR sort gate): high polyreactivity

## QVQLEESGGGLVQAGGSLRLSWAASGSTFQSYAMGWYRQAPGKERELVAVIDSGGRTYYADSVKGRFTISRDNAKNTVYLQMNSLKPEDTAVYYCATVPGYSLYDLIVYWGQGTQVTVSS
  polyreactivity (PSR sort gate): high polyreactivity

## QVQLVESGGGLVQAGCSLRLSCAASGRIFNWYGMGWYRQAPGKERELVAGITYSASRTYYADSVKGRFTISRDNAKNTVYLQMNSLKPEDTAVYYCAAGRYHRDDGYDYWGQGTQVTVSS
  polyreactivity (PSR sort gate): low polyreactivity

## QVQLVESGGGLVQAGGSLRLSCAASGSIFVTNAMGWYRQAPGKERELVAAISVSGGSTYYADSVKGRFTISRDKAKNTVYLQMNSLKPEDTAVYYCNTVRSPPGHDYWGLGTQVTVSS
  polyreactivity (PSR sort gate): low polyreactivity

## QVQLVESGGGLVQAGGSLRLSCAASGRTFRWNAMGWYRQAPGKERELVARISWRGGSTYYADSVKGRFTISRDNAKNTVYLQMNSLKPEDTAVYYCAATSPYYRTGYDYWGQGTQVTVSS
  polyreactivity (PSR sort gate): high polyreactivity

## QDQLVESGGGLVQAGGSLRLSCAASGRTFYRYTMGWYRQAPGKESELVAGISWRGGTTYYADSVKGRFTISRDNAKNTVYLQMNSLKPEDTAVYYCAAKAGYRYGSLAYYKYDYWGQGTQVTVSS
  polyreactivity (PSR sort gate): high polyreactivity

## QVQLVESGGGLVQAGGSLRLSCAASGGTFWLYTMGWYRQAPGTERELVAAITKSGGSTYYADSVKGRFTISRDNAMNTVYLQMNSLKPEDTAVYYCAARYSVYRDGYYWGQGTQVTVSS
  polyreactivity (PSR sort gate): high polyreactivity

## QVQLVESGGGLVQAGGSLRLSCAASGSTFDDNALGWYRQAPGKERELVAAISSRGSTYYADSVKGLFTISRDNAKNTVYLQMNSLKPEDTAVYYCAKRTYRYYGLNAYYYWGQGTQVTVSS
  polyreactivity (PSR sort gate): high polyreactivity

## QVQLVESGGGLVQAGGSLRLSCAASGIIFQAYAKGWYRQAPGKERELVAAISYSGGSTYYAESVKGRFTISRDNAKNNVDLQMNRLKPEVTAVYYCAAELYRYWFDMYYWGQGTQVTVSS
  polyreactivity (PSR sort gate): low polyreactivity

## QVQLVESGVGLVQAGVSLRISCAASGSIFDTYAMGWYRQAPGKERELVAAIRWTGGSTYYADSVKGRFTISRDNAKNTVYLQMNSLKREDTAVYYCATPSYGRPGFGYWGQGTQVTVSS
  polyreactivity (PSR sort gate): low polyreactivity

## QGQLVESGGGLVQAGGSLRLSCAASGLIFYKYAMGWYRQAPGKERVLVAAISSSGGSTYYGDSVKGRFTISRDTAKNTVYFQMNSLKPEDTADSSCAARTNRRGYHDWGQGTQVTVSS
  polyreactivity (PSR sort gate): high polyreactivity

## QVQLVESGGGLVQAGGSLRLSCAASGRIFYNNAMGWYRQAPGKERELVAAIDWPGGSTDYADSVKGRFTISRDNAKNTVYLQMNSLKPEDTAVYYCVAGHVPYWHGNSYDYWGQGTQVTVSS
  polyreactivity (PSR sort gate): low polyreactivity

## QVQLVESGGGLVQAGGSLRLSCAASGSIYLKYAMGWYRQAPGKERELVAAISSRGGSTYYADSVKGRFTISRDNAKNTVYLQMNSLKPEDTAVYYCAAKRWPGTDGYWGQGTQVTVSS
  polyreactivity (PSR sort gate): high polyreactivity

## QVQLVESGGGLVQAGGSLRLSCAASGFTFTYYALGGYRQAPGKERELVARIRGRSGSTYYADSVKGRFTISRDNAKNTVYLQMNSLKPEDTAVYYCNADFNRTVAGTPEVDYWGQGTQVTVSS
  polyreactivity (PSR sort gate): high polyreactivity

## QVQLVESGGGLVEAGGSLRLSCAASGFTFHYYTMGWYRQAPVKERELVASINYSGGRTYYADSVKGRFTISRDIAMNTVYLQMNSLKPEDTAVYYCNARYKSTYYYWGQGTQVTVSS
  polyreactivity (PSR sort gate): high polyreactivity

## QVQLVESGGGLVQAGGSLRLSCAASGRIFSPYAMGWYRQAPGKERELVASIRGSGGSTYYADSVKGPFTISRDNAKNTVYLQMNRLKPEDTAVYYCNARNNYRFLSFGYWGQGTQVTVSS
  polyreactivity (PSR sort gate): high polyreactivity

## QVQLVESGGGLVQAGGSLRLSCAASGSTFYVYAMGVYRQAPGKERELVAAIRGGGSTNYADSVKGRFTISRDNAKNTVYLQMNSLKPEDTAVYYCAARYRSLRYRPSGYSYNYWGQGTQVTVSS
  polyreactivity (PSR sort gate): high polyreactivity

## QVQLVESGGGLVQAGGSLRLSCAASGSIFGPYVMGWYRQAPGKERELVAAITFSGGSTYYADSVKGRFTISRDNAKNTVYLQMNSLKPEDTAVYYCNARPYSYRGSKRMYYWGQGTQVTVSS
  polyreactivity (PSR sort gate): high polyreactivity

## QVQLVESGGGLVQAGGSLRLSCAASGSIFKQNAMGWYRQAPGKDRELVASIRASGDRTYYADSVKGRFTISRDNAKNTVYLQMNSLKPEDTAVYYCAARRVRTRGYNYWGQGTQVTVSS
  polyreactivity (PSR sort gate): high polyreactivity

## QVQLVESGGGLVQAGGSLRLSCAASGFTFQYYAMGWYRQAPGKERELVAAISWSGTSPYYADSVKGRFTISRDNAKNTVYLQMISLKPADTAVYDCAASVWYYYSDYDYWGQGTQVTVSS
  polyreactivity (PSR sort gate): high polyreactivity

## QVQLVESGGGLVQAGGSLRLSCAASGRILNVYAMGWYRQAPGKERELHAAINYRGTNTYYADSVKGRFTISRDNAKNTVFLQMNSLKPEDTAVYYCAAERWYYNVYAEYSWGQGTQVTVSS
  polyreactivity (PSR sort gate): high polyreactivity

## QVQLVESGGGLLQAGGSLRLSCAASGSIFYGYAMGWYRQAPGKERELVAAITRGGGTYYADSVKGRFTNSRDNAKITVYLQMNSLKPEDTAVYYCALSFYRRYTPYDYWGQGTQLTVSS
  polyreactivity (PSR sort gate): high polyreactivity

## QVQLVESGGGLVQAGGSLRLSCAASGIIFKYNVMGWYTQAPGKERELVAAITDSGTSTFYADSVKGRFTISRDNAKNTVSLQMNSLKPEDTAFYYCAADEFSVFTIETYGYDYWGQGTQVTVSS
  polyreactivity (PSR sort gate): low polyreactivity

## QVHLVESGGGLVQAGGSLRLSCAASGFTFYYYAMGWYRQAPGKERELVATISRSVGSTYYADSVKGRFTISRDNAKNTVYLQMNSLKPEDTAVYYCAVGGYLRSVSYIRLGNYYWGQGTQVSVSS
  polyreactivity (PSR sort gate): high polyreactivity

## QVQLVESGGGLVQAGGSLRLSCAASGSTLPGNTMGWYRQAPGKERELVAAISKSGGTTYYADSVKGRFTISRDYAKNTVYLQMNSLKPEDTAVYYCAAKPWVWVYARYGKHPSYDYWGQGTQVTVSS
  polyreactivity (PSR sort gate): high polyreactivity

## QVQLVESGGGLVQAGGSLRLSCAASGSTFYYYVMGWYRQAPGKERELVAAISRGGGSTYYADSVKGRFTISRDNAKNTVYLQMNSLKPEDTAVYYCAAASYYVEGDYWGQGTQVTVSS
  polyreactivity (PSR sort gate): low polyreactivity

## QVQLVESGGGLVQAGGSLRLSCAASGSIFPAYAMGWYRQAPGKERELVASITGSGGSTYYADSVKGRFTISRDNAKNTVYLQMNSLKPEDTAVYYCNARYYVYSATVDRYYHFYYWGQGTQVTVSS
  polyreactivity (PSR sort gate): high polyreactivity

— the nanobody polyreactivity screen of Harvey et al. (2022)
